Laboratory results published in US20240343826A1, “Compositions and Methods for Targeting Cancer Stem Cells” (Seagen Inc., priority 2015, published 2024).

Key:
[1] = system: OV90 cells; test: MTT cell viability assay, antibody and chemotherapeutic agent treatment; type: cell-based, human; details: 72 to 144 hours, S3F 0.033 nM-500 nM; for cell viability (MTT assay): STn+CD133+ OV90 and CSC sub-fractions, normalized to untreated control
Protocol: STn+CD133+OV90 and CSC sub-fractions were treated with unconjugated anti-STn antibody S3F [0.033 nM-500 nM] or with different concentrations of chemotherapeutic agents paclitaxel and/or carboplatin. OV90 cells were cultured for 72 to 144 hours with the indicated concentrations and cell viability was analyzed by MTT assay (FIG. 2). All values were normalized to the untreated control.

[2] = system: CSC tumors; test: Anti-CSC activity in vivo, tumors in NOD/SCID mice
Protocol: The growth conditions of CSC subfractions in NOD/SCID mice is established and analyzed. Anti-STn antibodies are administered to mice as conjugates with chemotherapy and treated mice are tested for toxicity and efficacy through mouse observations and weights.
An equivalent amount of serially-diluted positive or negative subfraction cells (i.e., 1×10^5, 1×10^4, and 1×10^3/mouse; 2-8 mice/group) are injected subcutaneously (s.c.) into NOD/SCID mice, to compare their potential to generate tumors. Following injection of tumor cells, the mice are monitored daily for evidence of tumor formation and general health.
For treatment, tumors may be generated in mice from up to four sources: 1) primary ovarian tumors; 2) xenograft tumors previously established in NOD/SCID mice; 3) cryopreserved xenograft tumor tissue; or 4) human ovarian cancer cell lines or isolated cell line subfractions based on CD133/STn expression. For each tumor type, once a sufficient number of mice have tumors ranging from 200-300 mm^3 in volume, the mice are randomized into 4 groups (n=8-14 mice/group) such that the mean group tumor volumes are essentially equivalent. […]
Tumors are then measured twice weekly with calipers [tumor volume=(Lmm×Wmm×[…])/2]. […]

[3] = system: STn in ovarian cancer tissue; test: Immunohistochemical staining of ovarian cancer tissue sections; type: binding; details: S3F as primary antibody; peroxidase-based secondary detection; compared to normal IgG and no primary antibody
From the text: Tissue sections from ovarian cancer tissue were subjected to immunohistochemical staining to identify cells expressing STn using S3F antibody as a primary antibody. Bound antibody was detected using a peroxidase-based secondary detection system.

| Molecule | cell viability (MTT assay) [1] | efficacy in combination with standard chemotherapy agents used for ovarian cancer [2] | growth of CSC tumors ([2]; i.p. once weekly) | immunohistochemical staining [3] | dose dependence of effect on cell viability ([1]; OV90 cells) |
| --- | --- | --- | --- | --- | --- |
| CC(=O)O[C@H]1C(=O)[C@@]2(C)[C@H]([C@H](OC(=O)c3ccccc3)[C@]3(O)C[C@H](OC(=O)[C@H](O)[C@@H](NC(=O)c4ccccc4)c4ccccc4)C(C)=C1C3(C)C)[C@]1(OC(C)=O)CO[C@@H]1C[C@@H]2O [paclitaxel, reference compound] | Cell viability was reduced |  |  |  |  |
| N.N.O=C([O-])C1(C(=O)[O-])CCC1.[Pt+2] [carboplatin, reference compound] | Cell viability was reduced |  |  |  |  |
| S3F: anti-STn IgG2a antibody combining 3F1 variable domains with IgG2a constant domains; heavy chain SEQ ID NO: 5, light chain SEQ ID NO: 6 (antibody) heavy: QVQLQQSDAELVKPGASVKISCKASGYTFTDHAIHWVKQKPEQGLDWIGYISPGNGDIKYNEKFKDKVTLTADKSSSTACMHLNSLTSEDSAVYFCKRSLLALDYWGQGTTLTVSSAKTTAPSVYPLAPVCGDTTGSSVTLGCLVKGYFPEPVTLTWNSGSLSSGVHTFPAVLQSDLYTLSSSVTVTSSTWPSQSITCNVAHPASSTKVDKKIEPRGPTIKPCPPCKCPAPNLLGGPSVFIFPPKIKDVLMISLSPIVTCVVVDVSEDDPDVQISWFVNNVEVHTAQTQTHREDYNSTLRVVSALPIQHQDWMSGKEFKCKVNNKDLPAPIERTISKPKGSVRAPQVYVLPPPEEEMTKKQVTLTCMVTDFMPEDIYVEWTNNGKTELNYKNTEPVLDSDGSYFMYSKLRVEKKNWVERNSYSCSVVHEGLHNHHTTKSFSRTPGK light: DIVMTQSHKFMSTSVGDRVSITCKASQDVGTNIAWYQQKPGRSPKVLIYSASTRHTGVPDRFTGSGSGTDFTLTISNVQSEDLTDYFCQQYSSFPLTFGVGTKLELKRADAAPTVSIFPPSSEQLTSGGASVVCFLNNFYPKDINVKWKIDGSERQNGVLNSWTDQDSKDSTYSMSSTLTLTKDEYERHNSYTCEATHKTSTSPIVKSFNRNEC | Cell viability was reduced | increases the efficacy of the antibody | capable of delaying the growth of or eradicating CSC tumors | Numerous cells showed positive staining | most effective at higher doses tested |
